# Values joined by “and” are separate entries in the source; they are usually repeats but may differ in a detail not shown here. Equal values may be shown once.
# How the values were obtained:
# [1] = biological target: SYCP1αNcore (UniProt Q15431); assay: ITC
# [2] = biological target: SYCP1αN (UniProt Q15431); assay: SEC-MALS
# [3] = biological target: SYCP1αNcore (UniProt Q15431); assay: SEC-MALS
# [4] = biological target: MBP-SYCP1αNcore (UniProt Q15431); assay: SEC-MALS
# MBP-SYCP1αNcore, sequence (Q15431 206-362): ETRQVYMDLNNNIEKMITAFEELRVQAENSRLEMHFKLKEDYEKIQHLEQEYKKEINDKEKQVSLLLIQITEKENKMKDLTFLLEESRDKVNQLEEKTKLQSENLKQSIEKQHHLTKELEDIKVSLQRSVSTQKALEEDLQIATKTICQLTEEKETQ
# SYCP1αNcore, sequence (Q15431 206-362): as above
# SYCP1αN, sequence (Q15431 101-362): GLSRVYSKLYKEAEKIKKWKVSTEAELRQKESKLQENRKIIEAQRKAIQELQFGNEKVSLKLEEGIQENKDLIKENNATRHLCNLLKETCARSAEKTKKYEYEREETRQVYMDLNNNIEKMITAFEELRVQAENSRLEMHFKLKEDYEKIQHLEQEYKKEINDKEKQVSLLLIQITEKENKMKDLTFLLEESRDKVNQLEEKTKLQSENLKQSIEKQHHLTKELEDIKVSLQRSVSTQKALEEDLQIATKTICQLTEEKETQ
"KD, single replicate [1]",Kd [1],stoichiometry N (SYCP1 chains per SYCE3 chain) [2],stoichiometry N (SYCP1 chains per SYCE3 chain) [3],stoichiometry N (SYCP1 chains per SYCE3 chain) [4],Substance
16 nM and 10 nM and 22 nM,16 nM,2,2,,SYCE3 W41E Y44E (from UniProt A1L190 11-81) (natural protein)
,,,2,2,MBP-SYCE3 (from UniProt A1L190 11-81) (natural protein)
,,,2,,SYCE3 P53Q (from UniProt A1L190 11-81) (natural protein)
